Measured values published in patent US20110070615A1 (published 2011).

B1: L18H18 (Fab, V domains shown)
VH: QVQLVESGGGVVRPGGSLRLSCAASGFTFSSYAMSWVRQAPGKGLEWVSTISGSGGSTYYADSVKGRFTISRDNSKNTLYLQMNSLRAEDTAVYYCAKERGSGWSLDNMDVWGQGTTVTVSS
VL: DIQLTQSPSSVSASVGDRVTITCRASQGISRWLAWYQQKPGKAPRLLIYAASGLQSGVPSRFSGSGSGTDFTLTISNLQPEDFATYYCQQASSFPITFGQGTRLETK
B2: L16H16 (Fab, V domains shown)
VH: QVQLQESGPGLVKPSGTLSLTCAVSGGSISSSNWWSWVRQPPGKGLEWIGEIYHSGSTNYNPSLKSRVTISVDKSKNQFSLKLSSVTAADTAVYYCARWTGRTDAFDIWGQGTMVTVSS
VL: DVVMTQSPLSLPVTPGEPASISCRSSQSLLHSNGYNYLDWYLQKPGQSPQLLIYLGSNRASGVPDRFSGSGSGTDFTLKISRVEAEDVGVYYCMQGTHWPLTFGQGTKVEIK
B3: L20H20 (Fab, V domains shown)
VH: QVQLQESGPGLVKPSGTLSLTCAVSGGSISSSNWWSWVRQPPGKGLEWIGEIYHSGSTNYNPSLKSRVTISVDKSKNQFSLKLSSVTAADTAVYYCARSSSWYWNAFDIWGQGTMVTVSS
VL: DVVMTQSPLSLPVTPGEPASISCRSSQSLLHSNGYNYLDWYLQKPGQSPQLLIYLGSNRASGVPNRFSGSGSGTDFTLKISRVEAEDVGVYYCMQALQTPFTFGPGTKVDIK
B4: L19H19 (Fab, V domains shown)
VH: QVQLVESGPGLVKPSGTLSLTCAVSGGSISSSNWWSWVRQPPGKGLEWIGEIYHSGSTNYNPSLKSRVTISVDKSKNQFSLKLSSVTAADTAVYYCARDSSGFYGMDVWGQGTTVTVSS
VL: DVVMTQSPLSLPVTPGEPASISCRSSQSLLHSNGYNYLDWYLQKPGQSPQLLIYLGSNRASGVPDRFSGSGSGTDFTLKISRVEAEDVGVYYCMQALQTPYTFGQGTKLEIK

The binders below were run against T1, hu IGF-1R(ECD)-C3-muIgG1Fc (human; mouse, Glycosylated. About 60% of the preparation is cleaved at RKRR (chain pos 708-711) into disulfide-linked alpha and beta chains, 40% is uncleaved. Dimer through receptor and Fc disulfides.) (assay: phage Fab ELISA, IGF-1R-C3-mFc coated at 5 µg/ml, anti-M13-HRP).
T1 construct: 60% of the purified protein was processed into α and β chains, 40% unprocessed; also called IGF-1R(ECD)-C3-muFc; IGF-1R-C3-muFc
Protocol: In 96-well 2-ml deep-well blocks, 480 μl/well 2×YT-CG broth was inoculated with 20 μl of overnight cultures of the individual clones, then incubated at 37° C., 300 rpm for 3 hours. To each well, 50 μl of 1:3 diluted M13KO7 helper phage were added to infect the cells. The block was incubated at 37° C. without shaking for 30 minutes, and then shaken gently for another 30 minutes at 150 rpm. The block was centrifuged at 3600 rpm for 20 minutes to pellet the infected cells. The cell pellet in each well was suspended into 480 μl of 2×YT-CK (2×YT broth containing 100 μg/ml carbenicillin and 40 μg/ml kanamycin), and incubated at 30° C. overnight for about 20 hours. The cell debris was separated by centrifugation at 3600 rpm for 20 minutes. The rescued phage supernatant was used in the phage ELISA to check for IGF-1R-specific, INSR-cross reactive, or mouse Fc binding of individual clones.
Three sets of Nunc MaxiSorb Immunoplates were coated with 100 μ/well of IGF-1R-C3-mFc at 5 μg/ml, INSR-mFc at 5 μg/ml, or mouse IgG1 (catalog #010-0103, Rockland, Gilbertsville, Pa.) at 2 μg/ml in PBS, respectively, at 4° C. overnight. The coated plates were washed 3× with […] of PBS. The washed plates were blocked with 300 μl/well 2% MPBS at room temperature for one hour. Meanwhile, rescued phages of individual clones were pre-blocked by mixing 170 μof rescued phage with 170 μl of 4% MPBS. The blocked plates were washed 5× with 300 μl/well TBST (TBS: 10 mM Tris-HCl, pH 7.5, 1 mM EDTA, 150 mM NaCl; Tween-20. 0.1%). 100 μl/well of pre-blocked phage dilutions were distributed to each set of coated plate, which were incubated at room temperature on a rocker for 90 minutes. The plates were washed 5× with 300 μl/well TBST. 100 μl/well of anti-M13-HRP in 2% MPBS (1:3000 dilution, catalog number 27-9421-01, Amersham Pharmacia Biotech) were distributed, and plates were incubated at room temperature on rocker for one hour. The plates were washed 5× with 300 μl/well TBST. 100 μl/well of the substrate 1-Step™ ABTS (Pierce Biotechnology, Rockford, Ill., catalog number 37615) were added. Plates were incubated for one hour. OD₄₀₅ was measured for signal detection.

Binder | binding result
B1 | binds
B2 | binds
B3 | binds
B4 | binds
